Experiments:
human TMEM106B (human) [1] = target: human TMEM106B (human) (UniProt Q9NUM4); experiment: FACS, supernatant, hu-transfected HEK293
human TMEM106B (human) [2] = target: human TMEM106B (human) (UniProt Q9NUM4); experiment: FACS A549 10 ug/ml
human TMEM106B (human) [3] = target: human TMEM106B (human) (UniProt Q9NUM4); experiment: FACS HeLa
human TMEM106B (human) [4] = target: human TMEM106B (human) (UniProt Q9NUM4); experiment: FACS U251
human TMEM106B (human) [5] = target: human TMEM106B (human) (UniProt Q9NUM4); experiment: FACS HEK+huTMEM 0.1 ug/ml (2nd column so headed)
human TMEM106B (human) [6] = target: human TMEM106B (human) (UniProt Q9NUM4); experiment: FACS A549
human TMEM106B (human) [7] = target: human TMEM106B (human) (UniProt Q9NUM4); experiment: FACS HEK+huTMEM 10 ug/ml
mouse TMEM106B (mouse) [8] = target: mouse TMEM106B (mouse) (UniProt Q80X71); experiment: FACS Neuro2a
human TMEM106B (human) [9] = target: human TMEM106B (human) (UniProt Q9NUM4); experiment: FACS HEK+huTMEM 1.0 ug/ml
mouse TMEM106B (mouse) [10] = target: mouse TMEM106B (mouse) (UniProt Q80X71); experiment: FACS, transfected HEK293
human TMEM106B (human) [11] = target: human TMEM106B (human) (UniProt Q9NUM4); experiment: FACS, transfected HEK293
human TMEM106B (human) [12] = target: human TMEM106B (human) (UniProt Q9NUM4); experiment: FACS HEK+huTMEM 0.1 ug/ml
human TMEM106B (human) [13] = target: human TMEM106B (human) (UniProt Q9NUM4); experiment: FACS A549 1 ug/ml

fold over negative controls (human TMEM106B (human) [1]): > 2 fold | MFI (human TMEM106B (human) [2]): 443 MFI | MFI (human TMEM106B (human) [3]): 323 MFI | MFI (human TMEM106B (human) [4]): 349 MFI | MFI (human TMEM106B (human) [5]): 282 MFI | MFI (human TMEM106B (human) [6]): 916 MFI | MFI (human TMEM106B (human) [7]): 846 MFI | MFI (mouse TMEM106B (mouse) [8]): 325 MFI | MFI (human TMEM106B (human) [9]): 415 MFI | fold over parental HEK293 (mouse TMEM106B (mouse) [10]): 1.97 fold | fold over parental HEK293 (human TMEM106B (human) [11]): 1.13 fold | MFI (human TMEM106B (human) [12]): 304 MFI | MFI (human TMEM106B (human) [13]): 373 MFI
B1: TM-4 (antibody, V domains shown)
VH: EVQVQQSGPVLVKPGASVKMSCKASGYTFTDYYMNWVKQSHGKNLEWIGVINPYNGGTSYHQKFKGKATLTVDKSSSTAYMELNSLTSEDSAVYYCARAATVVAGFDYWGQGTTLTVSS
VL: QAVVTQESALTTSPGETVTLTCRSSTGAVTTSNYANWVQEKPDHLFTGLIGGTNNRAPGVPARFSGSLIGDKAALTITGAQTEDEAIYFCVLWYSNHLVFGGGTKLTVL
